From paper PMC12136220 come the findings set out here.

Several values for one entry are separate records, joined by “and”; a condition that tells them apart may be missing. Equal entries are not always repeated.

In assay [1] the target is human recombinant Hsp60 (human) (UniProt P10809).
The target in assay [2] is Listeria adhesion protein (LAP) (Listeria monocytogenes). Nature of the assay: cryo-EM structure; LAP alone, 1.2 mg/ml, Titan Krios 300 kV with K3 detector, cryoSPARC.
Assay [3] has the same target. In words: cryo-EM structure; purified LAP mixed with Hsp60 at 2:1, incubated 4 h at 4°C; Titan Krios 300 kV with K3 detector, cryoSPARC; LAP-Hsp60 map refined in C1, Hsp60 alone in C7, LAP dimer in C2.
Assay [4] has as its target human recombinant Hsp60 (human) (UniProt P10809). The source holds these as a separate data set.

Chain of human recombinant Hsp60 (human) (P10809 27-573): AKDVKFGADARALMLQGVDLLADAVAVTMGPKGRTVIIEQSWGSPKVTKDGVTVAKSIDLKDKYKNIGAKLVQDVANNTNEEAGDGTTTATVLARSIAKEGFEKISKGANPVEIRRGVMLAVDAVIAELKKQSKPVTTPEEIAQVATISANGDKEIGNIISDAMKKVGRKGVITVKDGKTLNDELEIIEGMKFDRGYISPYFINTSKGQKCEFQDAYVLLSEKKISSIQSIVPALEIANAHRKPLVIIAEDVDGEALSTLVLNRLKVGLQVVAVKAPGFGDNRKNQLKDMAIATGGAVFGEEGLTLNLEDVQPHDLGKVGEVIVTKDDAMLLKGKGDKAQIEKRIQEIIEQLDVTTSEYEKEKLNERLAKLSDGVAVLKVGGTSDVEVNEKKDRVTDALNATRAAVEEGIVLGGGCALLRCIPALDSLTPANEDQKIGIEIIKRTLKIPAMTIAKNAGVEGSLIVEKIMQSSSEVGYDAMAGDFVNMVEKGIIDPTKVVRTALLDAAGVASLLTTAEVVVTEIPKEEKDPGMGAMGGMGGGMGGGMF

In the case of “N1 subdomain of LAP (domain or fragment)”, in assay [1], the FD4 paracellular flux through Caco-2 monolayers in 1 h, relative to PBS control was determined as 133% and the decrease of TEER of Caco-2 monolayers in 1 h, relative to full-length LAP (100%) is 78%.

With “Listeria adhesion protein (LAP) (natural protein)”, the stoichiometry N (commonly the number of molecules, sites or subunits per partner or assembly) in assay [2] is 2 and 4; in assay [3], 4 and 2. In addition, in assay [4], the FD4 (FITC 4-kDa dextran) permeability through Caco-2 monolayers after 1 h, LAP 0.01-5 μg/mL is 80%. Besides, in assay [1], the FD4 paracellular flux through Caco-2 monolayers in 1 h, relative to PBS control was found to be 264%.

With “N2 subdomain of LAP (domain or fragment)”, in assay [1], the FD4 paracellular flux through Caco-2 monolayers in 1 h, relative to PBS control is 149% and the decrease of TEER of Caco-2 monolayers in 1 h, relative to full-length LAP (100%) worked out at 96%.
